In patent US20220119477A1 (published 2022):

T1: WT1 peptide on HLA-A*02:01 (human)
T1 peptide: VLDFAPPGA


Biological target: T1, WT1 peptide on HLA-A*02:01
Experiment: multimer staining

binding result	Binder
recognises	TCR of Patient 1, alpha 1 and beta (growing colony) (TCR, V domains shown) Valpha: AQSVAQPEDQVNVAEGNPLTVKCTYSVSGNPYLFWYVQYPNRGLQFLLKYITGDNLVKGSYGFEAEFNKSQTSFHLKKPSALVSDSALYFCAVRDGGATNKLIFGTGTLLAVQP Vbeta: EAQVTQNPRYLITVTGKKLTVTCSQNMNHEYMSWYRQDPGLGLRQIYYSMNVEVTDKGDVPEGYKVSRKEKRNFPLILESPSPNQTSLYFCASSTLGGELFFGEGSRLTVL
recognises	TCR of Patient 3, alpha 1 and beta (TCR, V domains shown) Valpha: AQKVTQAQTEISVVEKEDVTLDCVYETRDTTYYLFWYKQPPSGELVFLIRRNSFDEQNEISGRYSWNFQKSTSSFNFTITASQVVDSAVYFCALPDKVIFGPGTSLSVIP Vbeta: DSGVTQTPKHLITATGQRVTLRCSPRSGDLSVYWYQQSLDQGLQFLIQYYNGEERAKGNILERFSAQQFPDLHSELNLSSLELGDSALYFCASSVSAGSTGELFFGEGSRLTVL
recognises	TCR of Patient 3, alpha 2 and beta (TCR, V domains shown) Valpha: GQQLNQSPQSMFIQEGEDVSMNCTSSSIFNTWLWYKQEPGEGPVLLIALYKAGELTSNGRLTAQFGITRKDSFLNISASIPSDVGIYFCAGLYATNKLIFGTGTLLAVQP Vbeta: DSGVTQTPKHLITATGQRVTLRCSPRSGDLSVYWYQQSLDQGLQFLIQYYNGEERAKGNILERFSAQQFPDLHSELNLSSLELGDSALYFCASSVSAGSTGELFFGEGSRLTVL
recognises	TCR of Patient 2, alpha 2 and beta 2 (TCR, V domains shown) Valpha: GENVEQHPSTLSVQEGDSAVIKCTYSDSASNYFPWYKQELGKRPQLIIDIRSNVGEKKDQRIAVTLNKTAKHFSLHITETQPEDSAVYFCAATSRDDMRFGAGTRLTVKP Vbeta: DAMVIQNPRYQVTQFGKPVTLSCSQTLNHNVMYWYQQKSSQAPKLLFHYYDKDFNNEADTPDNFQSRRPNTSFCFLDIRSPGLGDAAMYLCATSWGLNEQYFGPGTRLTVT
recognises	TCR of Patient 2, alpha 1 and beta 1 (TCR, V domains shown) Valpha: AQSVTQLDSQVPVFEEAPVELRCNYSSSVSVYLFWYVQYPNQGLQLLLKYLSGSTLVESINGFEAEFNKSQTSFHLRKPSVHISDTAEYFCAVTLLSIEPSAGGYQKVTFGIGTKLQVIP Vbeta: DTGVSQNPRHKITKRGQNVTFRCDPISEHNRLYWYRQTLGQGPEFLTYFQNEAQLEKSRLLSDRFSAERPKGSFSTLEIQRTEQGDSAMYLCASSLEGRAMPRDSHQETQYFGPGTRLLVL
recognises	TCR of Patient 2, alpha 2 and beta 1 (TCR, V domains shown) Valpha: GENVEQHPSTLSVQEGDSAVIKCTYSDSASNYFPWYKQELGKRPQLIIDIRSNVGEKKDQRIAVTLNKTAKHFSLHITETQPEDSAVYFCAATSRDDMRFGAGTRLTVKP Vbeta: DTGVSQNPRHKITKRGQNVTFRCDPISEHNRLYWYRQTLGQGPEFLTYFQNEAQLEKSRLLSDRFSAERPKGSFSTLEIQRTEQGDSAMYLCASSLEGRAMPRDSHQETQYFGPGTRLLVL
recognises	TCR of Patient 2, alpha 1 and beta 2 (TCR, V domains shown) Valpha: AQSVTQLDSQVPVFEEAPVELRCNYSSSVSVYLFWYVQYPNQGLQLLLKYLSGSTLVESINGFEAEFNKSQTSFHLRKPSVHISDTAEYFCAVTLLSIEPSAGGYQKVTFGIGTKLQVIP Vbeta: DAMVIQNPRYQVTQFGKPVTLSCSQTLNHNVMYWYQQKSSQAPKLLFHYYDKDFNNEADTPDNFQSRRPNTSFCFLDIRSPGLGDAAMYLCATSWGLNEQYFGPGTRLTVT
